Test [1] has as its target human IL-2Rγ expressed on cells (human) (UniProt P31785). Description: flow cytometry, isotype control at 10 µg/ml; low end of the range (Jurkat by Table 9-1). For orientation: A flow cytometer gives signals particle by particle.
For test [2] the target is unchanged. Description: flow cytometry, isotype control at 10 µg/ml; high end of the range (NK-92 by Table 9-1).
The target of test [3] is T1, human IL-2Rγ expressed on cells (NK-92, Jurkat) (human) (UniProt P31785).
T1 sequence (looked up): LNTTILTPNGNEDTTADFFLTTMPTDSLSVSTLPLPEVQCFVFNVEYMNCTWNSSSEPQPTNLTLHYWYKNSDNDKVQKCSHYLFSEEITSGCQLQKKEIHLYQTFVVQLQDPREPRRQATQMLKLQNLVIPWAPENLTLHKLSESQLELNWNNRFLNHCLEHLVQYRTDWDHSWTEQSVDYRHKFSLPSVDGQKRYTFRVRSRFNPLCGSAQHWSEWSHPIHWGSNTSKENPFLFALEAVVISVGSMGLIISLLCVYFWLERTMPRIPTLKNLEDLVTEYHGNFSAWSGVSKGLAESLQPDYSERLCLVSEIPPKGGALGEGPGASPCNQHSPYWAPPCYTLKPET
Description: flow cytometry on NK-92 cells (endogenous human IL-2Rg), isotype control 10 ug/ml.

Test [4] deals with T1, human IL-2Rγ expressed on cells (NK-92, Jurkat) (human). Description: flow cytometry on Jurkat cells (endogenous human IL-2Rg), isotype control 10 ug/ml.
The target is the same in test [5]. Description: flow cytometry on NK-92 cells (endogenous human IL-2Rg), isotype control 10 ug/ml. This is another data set of the same source.
Test [6] concerns the target T2, mouse IL-2Rγ expressed on cells (MC/9) (mouse) (UniProt P34902).
T2 sequence (looked up): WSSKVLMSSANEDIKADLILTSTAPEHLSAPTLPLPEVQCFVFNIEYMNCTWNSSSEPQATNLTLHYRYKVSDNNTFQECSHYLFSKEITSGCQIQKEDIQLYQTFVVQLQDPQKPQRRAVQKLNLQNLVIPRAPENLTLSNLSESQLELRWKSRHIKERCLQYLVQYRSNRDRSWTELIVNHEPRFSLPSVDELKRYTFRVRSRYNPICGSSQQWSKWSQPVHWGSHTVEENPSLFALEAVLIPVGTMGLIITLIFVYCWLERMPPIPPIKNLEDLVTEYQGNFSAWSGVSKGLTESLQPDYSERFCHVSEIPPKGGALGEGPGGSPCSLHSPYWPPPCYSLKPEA
Description: flow cytometry on MC/9 cells (endogenous mouse IL-2Rg), isotype control 10 ug/ml.

For test [7], the target named is human IL-2Rγ expressed on cells (human) (UniProt P31785). Description: flow cytometry on NK-92 cells, isotype control at 10 µg/ml; the end of the range that Table 9-2 ties to NK-92.
The target in test [8] is T2, mouse IL-2Rγ expressed on cells (MC/9) (mouse). Description: flow cytometry on MC/9 cells (endogenous mouse IL-2Rg), secondary antibody alone.
Test [9] concerns the target T1, human IL-2Rγ expressed on cells (NK-92, Jurkat) (human). Description: flow cytometry on Jurkat cells (endogenous human IL-2Rg), secondary antibody alone.
Test [10] has the same target. Description: flow cytometry on NK-92 cells (endogenous human IL-2Rg), secondary antibody alone.
Test [11] has as its target T3, human IL2Rγ expressed on cells (human) (UniProt P31785).
T3 sequence (looked up): T1 sequence (looked up)
Description: cell-based or functional assay.

Test [12] deals with T3, human IL2Rγ expressed on cells (human). Description: cell-based or functional assay. This is another data set of the same source.

Like-named read-outs stand apart in the source and are kept apart here.

For the substance REGN1945 (antibody), the binding ratio (sample MFI over unstained MFI) in test [1] stood at 1; in test [2], 13; in test [7] it was 1. In addition, the Binding Ratio (Sample over unstained MFIs) in test [3] was 13; in [4], 1; in [5] it was 1; in [6] it was 1.
“anti-human antibody conjugated to allophycocyanin (APC) (Jackson ImmunoResearch, #109-136-170)”: the Binding Ratio (Sample over unstained MFIs) in [8], in test [9] and in test [10] was 1 in each case.
Take “human IL-2 (from UniProt P60568 21-153) (ligand)”: the EC50 [M] of ligand; NK92/hIL7R/STAT3-luc in test [11] worked out at 3.3e-11 M; in test [12], 4.5e-11 M.
On the same counts, the results for “human IL-9 (from UniProt P15248 19-144) (ligand)” are 2e-11 M and 3.3e-11 M.
For “human IL-15 (from UniProt P40933 49-162) (ligand)” the same measures were 1.5e-10 M and 2.3e-10 M.
For “human IL-21 (from UniProt Q9HBE4 30-162) (ligand)”, the results for the EC50 [M] of ligand; NK92/hIL7R/STAT3-luc in [11] and in [12] were 3.1e-12 M and 6e-12 M, respectively.
